The results in this text go back to patent US20050074863A1, “T-cell epitodes in carboxypeptidase g2” (priority 2001, published 2005).

The assay deals with human T-cells. The experiment in a line: Human PBMC in vitro proliferation assay with wild-type or modified CPG2 protein. It is filed as cell-based. The protocol: A modified protein was prepared according to the method of examples 3-5. The modified protein contained multiple substitutions from the wild-type sequence. Positive control protein was wild-type CPG2.
For T cell proliferation assays 4×10^6 PBMC (per well) from healthy donors were incubated with unmodified and modified […] in 2 ml bulk cultures (in 24 well plates). Each donor culture was treated with modified and unmodified CPG2 at 5 and 50 μg/ml. In addition an untreated control bulk culture was maintained enabling stimulation indexes to be determined. At days 5, 6, 7 and 8 cells for each bulk culture were gently agitated and 50 μl samples removed in triplicate for determination of the proliferation index. The 50 μl sample aliquots were each transferred to 3 wells of a U-bottom 96 well plate. Fresh AIM V media (130 μl) was added to each of the 96 wells. Cells were pulsed (for 18-21 hours) with 1 μCi [^3H]Thymidine per well diluted in a total volume of 20 ul AIM V media. The total volume for each culture was 200 μl. CPM values were collected using a beta-plate reader and the stimulation index for each time point determined as per Example 2.
The SI was plotted for each time point and treatment.

B1: carboxypeptidase G2 (protein, UniProt P06621 23-415, looked up)
Carboxypeptidase G2: ALAQKRDNVLFQAATDEQPAVIKTLEKLVNIETGTGDAEGIAAAGNFLEAELKNLGFTVTRSKSAGLVVGDNIVGKIKGRGGKNLLLMSHMDTVYLKGILAKAPFRVEGDKAYGPGIADDKGGNAVILHTLKLLKEYGVRDYGTITVLFNTDEEKGSFGSRDLIQEEAKLADYVLSFEPTSAGDEKLSLGTSGIAYVQVNITGKASHAGAAPELGVNALVEASDLVLRTMNIDDKAKNLRFNWTIAKAGNVSNIIPASATLNADVRYARNEDFDAAMKTLEERAQQKKLPEADVKVIVTRGRPAFNAGEGGKKLVDKAVAYYKEAGGTLGVEERTGGGTDAAYAALSGKPVIESLGLPGFGYHSDKAEYVDISAIPRRLYMAARLIMDLGAGK
modifications: 6xHis tag
notes: bacterial enzyme from Pseudomonas sp. strain RS-16, 390 residues, recombinant 6xHis tagged; positive control protein
Consider B1, for which, where the note is “responsive donors #1 and #16, 5 and 50 μg/ml, days 5-8, 3H-thymidine”, the “proliferative response (stimulation index) to whole protein” value is given as “significant proliferative response”. Also, the “time of peak proliferative response” value (responsive donors, 5 and 50 μg/ml) was 7 days.
